How the values were obtained:
[1] = target: 3XFLAG-BAP (bacterial alkaline phosphatase with the triple FLAG sequence at the N-terminus) (E. coli) [phosphatase: P00634]; test: ELISA
[2] = target: 3XFLAG-BAP (bacterial alkaline phosphatase with the triple FLAG sequence at the N-terminus) (E. coli) [phosphatase: P00634]; test: dot blot
[3] = target: 3XFLAG-BAP (bacterial alkaline phosphatase with the triple FLAG sequence at the N-terminus) (E. coli) [phosphatase: P00634]; test: western blot, M2 at 10 ug/ml, chemiluminescence
[4] = target: 3XFLAG-BAP (bacterial alkaline phosphatase with the triple FLAG sequence at the N-terminus) (E. coli) [phosphatase: P00634]; test: western blot, M2 at 10 ug/ml, chemiluminescence, longer exposure
[5] = tested on: FLAG M2 antibody; test: Isothermal titration calorimetry of M2 antibody binding to FLAG epitopes; settings: 25° C., PBS containing 0.05% sodium azide, for 3XFLAG system r>1000, accurate Ka can not be determined, in M-1 (unit assumed)
Experimental: Thermodynamic analysis of the M2 antibody binding to the FLAG epitopes was measured by isothermal titration calorimetry using an OMEGA calorimeter (Microcal). All samples were dialyzed against PBS containing 0.05% sodium azide and degassed prior to the measurements. All measurements were made at 25° C. The concentration of M2 antibody was between 15 and 50 uM depending upon which samples were used. The concentration of the titrants were 605 uM for the 1X BAP, 1110 uM for the 1X FLAG peptide, 400 uM for the 3X BAP, and 580 uM for the 3XFLAG peptide. Injections were carried out every 2.5 to 3.0 minutes which was sufficient for baseline to be achieved with injection volumes ranging from 4 to 11 uL. Injections were carried out over a 4 to 10 second period while stirring at 400 rpm. Data analysis and fitting were performed using the Origin software supplied by MicroCal. The enthalpies were obtained by numerical integration of the data and subtraction of the heats of dilution. Values of Ka, n the number of binding sites were determined by fitting the data to a theoretical curve with only the enthalpy was held constant during the fitting process.

[6] = tested on: anti-FLAG M2 affinity gel; test: Competitive elution from anti-FLAG M2 affinity gel; format: binding; settings: for competitive elution from anti-FLAG M2 affinity gel using 3XFLAG peptide: competitor: 3XFLAG peptide
[7] = tested on: M2 antiFLAG antibody; test: Western blot of purified FLAG-BAP probed with M2 anti-FLAG antibody, chemiluminescent detection; format: binding
Experimental: E. coli BL21 (DE3) were transformed with the expression plasmid containing the triple FLAG BAP construct made according to the methods of Example 1. Cells were grown in terrific broth containing 100 μg/ml ampicillin at 37° C. with agitation. The culture was grown to an OD600=4.0 and then induced with IPTG at a final concentration of 1 mM. The cell culture was grown for an additional 3 hours at 37° C. and then harvested by centrifugation. The cell pellet was resuspended in 50 mM Tris-HCl. pH 8.0 and the cells disrupted by sonication and cellular debris removed by centrifugation. The supernatant was applied to M2 affinity gel was equilibrated with 50 mM Tris-HCI pH 8.0, 150 mM NaCl (TBS). The resin was washed with 20 bed volumes of TBS and then the triple FLAG BAP was eluted with five column volumes of 0.1 M Glycine pH 3.5.
The eluted protein was pooled and adjusted to pH 7.5 with 1.0 M Tris-HCl pH 8.0. Protein content was determined by both Bradford and by absorbance using ε280=0.7ml/mg.
Purified 3XFLAG-BAP and N-BAP were diluted with to 2X Laemlli buffer, boiled for five minutes and then placed on ice. Samples were resolved on a 15% SDS-PAGE using the method of Laemlli (Laemli, V., Nature, 227:680–685 (1970)) and then transferred to nitrocellulose membranes. The membrane was blocked with phosphate buffered saline containing 3% non-fat dry milk for 1 hour and then rinsed three times in TBS, 0.05% Tween 20 (TBS-T). The membrane was incubated with M2 antibody at a final concentration of 10 μg/ml for 30 minutes in TBS-T and then rinsed three times in TBS-T. The membrane was then incubated for 30 minutes with a goat […] IgG (whole molecule) Horseradish peroxidase(HRP) conjugate diluted 1:10,000 in TBS-T then rinsed three times in TBS-T. The FLAG tagged protein were detected with the HRP conjugates and visualized by chemilumenescent detection using ECL (Amersham) and Kodak X-Omat MR film according to manufacturer's directions with exposures from 1 to 30 minutes.

fold increase in detection against single FLAG [1]	fold increase in detection against single FLAG [2]	amount detected [3]	fold increase in detection limit against single FLAG-BAP [3]	amount detected [4]	Ka (association constant) [5]	Molecule	competitive elution from anti-FLAG M2 affinity gel using 3XFLAG peptide [6]	amount of purified protein detected ([7]; exposures as short as 1 minute)	amount of purified protein detected ([7]; increased exposure time, with increased background)	increase in detection limit compared to the single FLAG-BAP fusion protein ([7]; western blot, M2 antibody, chemiluminescence)	elution from anti-FLAG M2 affinity gel by competition with the original FLAG peptide ([6]; competitor: original FLAG peptide)
> 10 fold	> 10 fold	500 picograms	10 fold	100 picograms	–	anti-FLAG M2 monoclonal antibody	–	–	–	–	–
–	–	–	–	–	1.69E+07	1XBAP: bacterial alkaline phosphatase fusion protein containing the traditional FLAG epitope (DYKDDDDK), expressed in E. coli and purified (protein) DYKDDDDKMPVLENRAAQGDITAPGGARRLTGDQTAALRDSLSDKPAKNIILLIGDGMGDSEITAARNYAEGAGGFFKGIDALPLTGQYTHYALNKKTGKPDYVTDSAASATAWSTGVKTYNGALGVDIHEKDHPTILEMAKAAGLATGNVSTAELQDATPAALVAHVTSRKCYGPSATSEKCPGNALEKGGKGSITEQLLNARADVTLGGGAKTFAETATAGEWQGKTLREQAQARGYQLVSDAASLNSVTEANQQKPLLGLFADGNMPVRWLGPKATYHGNIDKPAVTCTPNPQRNDSVPTLAQMTDKAIELLSKNEKGFFLQVEGASIDKQDHAANPCGQIGETVDLDEAVQRALEFAKKEGNTLVIVTADHAHASQIVAPDTKAPGLTQALNTKDGAVMVMSYGNSEEDSQEHTGSQLRIAAYGPHAANVVGLTDQTDLFYTMKAALGLK	can be competitively eluted	–	–	–	–
–	–	–	–	–	2.09E+08	3XBAP: triple FLAG version of bacterial alkaline phosphatase expressed in E. coli from p3XFLAG-ATS-BAP and purified on M2 affinity gel (protein) MDYKDHDGDYKDHDIDYKDDDDKMPVLENRAAQGDITAPGGARRLTGDQTAALRDSLSDKPAKNIILLIGDGMGDSEITAARNYAEGAGGFFKGIDALPLTGQYTHYALNKKTGKPDYVTDSAASATAWSTGVKTYNGALGVDIHEKDHPTILEMAKAAGLATGNVSTAELQDATPAALVAHVTSRKCYGPSATSEKCPGNALEKGGKGSITEQLLNARADVTLGGGAKTFAETATAGEWQGKTLREQAQARGYQLVSDAASLNSVTEANQQKPLLGLFADGNMPVRWLGPKATYHGNIDKPAVTCTPNPQRNDSVPTLAQMTDKAIELLSKNEKGFFLQVEGASIDKQDHAANPCGQIGETVDLDEAVQRALEFAKKEGNTLVIVTADHAHASQIVAPDTKAPGLTQALNTKDGAVMVMSYGNSEEDSQEHTGSQLRIAAYGPHAANVVGLTDQTDLFYTMKAALGLK	can be competitively eluted	500 picograms	100 picograms	10 fold	cannot be eluted

Source: patent US7094548B2, “Purification of recombinant proteins fused to multiple epitopes” (Sigma-Aldrich Co., priority 1999, dated 2006)
